# In patent US20250188166A1:
# Columns and labels:
# [1] = target: IL-18 polypeptide SEQ ID NO: 47 (C38S, C68S, C76S, C127S) (human) (UniProt Q14116); assay: cell-based or functional assay
# [2] = target: IL-18 polypeptide C152 (human) (UniProt Q14116); assay: cell-based or functional assay
# [3] = target: IL-18 polypeptide C148 (human) (UniProt Q14116); assay: cell-based or functional assay
# [4] = target: IL-18 polypeptide SEQ ID NO: 57 (E6K, C38S, K53A) (human) (UniProt Q14116); assay: cell-based or functional assay
# [5] = target: IL-18 polypeptide C159 (human) (UniProt Q14116); assay: cell-based or functional assay
# [6] = target: IL-18 polypeptide C157 (human) (UniProt Q14116); assay: cell-based or functional assay
# [7] = target: IL-18 polypeptide SEQ ID NO: 39 (E06K, K53A) (human) (UniProt Q14116); assay: cell-based or functional assay
# [8] = target: IL-18 polypeptide C146 (SEQ ID NO: 68) (human) (UniProt Q14116); assay: cell-based or functional assay
# [9] = target: IL-18 polypeptide C167 (human) (UniProt Q14116); assay: cell-based or functional assay
# [10] = target: IL-18 polypeptide SEQ ID NO: 40 (E06K, S55A) (human) (UniProt Q14116); assay: cell-based or functional assay
# [11] = target: IL-18 polypeptide C144 (human) (UniProt Q14116); assay: cell-based or functional assay
# [12] = target: IL-18 polypeptide C158 (human) (UniProt Q14116); assay: cell-based or functional assay
# [13] = target: IL-18 polypeptide SEQ ID NO: 53 (K53A, T63A) (human) (UniProt Q14116); assay: cell-based or functional assay
# [14] = target: IL-18 polypeptide SEQ ID NO: 62 (E6K, C38A, K53A, C127A) (human) (UniProt Q14116); assay: cell-based or functional assay
# [15] = target: IL-18 polypeptide C153 (human) (UniProt Q14116); assay: cell-based or functional assay
# [16] = target: IL-18 polypeptide SEQ ID NO: 46 (E06K, K53A, S55A, M51G) (human) (UniProt Q14116); assay: cell-based or functional assay
# [17] = target: IL-18 polypeptide SEQ ID NO: 35 (Y01G, F02A, E06K, M51G, K53A, D54A, S55A, T63A) (human) (UniProt Q14116); assay: cell-based or functional assay
# [18] = target: IL-18 polypeptide SEQ ID NO: 51 (T63A) (human) (UniProt Q14116); assay: cell-based or functional assay
# [19] = target: IL-18 polypeptide C168 (human) (UniProt Q14116); assay: cell-based or functional assay
# [20] = target: IL-18 polypeptide C161 (human) (UniProt Q14116); assay: cell-based or functional assay
# [21] = target: IL-18 polypeptide C165 (human) (UniProt Q14116); assay: cell-based or functional assay
# [22] = target: native IL-18 wild-type (SEQ ID NO: 1) (human) (UniProt Q14116); assay: cell-based or functional assay
# [23] = target: IL-18 polypeptide C145 (human) (UniProt Q14116); assay: cell-based or functional assay
# [24] = target: IL-18 polypeptide C151 (human) (UniProt Q14116); assay: cell-based or functional assay
# [25] = target: IL-18 polypeptide SEQ ID NO: 54 (E06K, K53A, C38S, C68S, C76S, C127S, K70C) (human) (UniProt Q14116); assay: cell-based or functional assay
# [26] = target: IL-18 polypeptide C155 (human) (UniProt Q14116); assay: cell-based or functional assay
# [27] = target: IL-18 polypeptide C154 (human) (UniProt Q14116); assay: cell-based or functional assay
# [28] = target: IL-18 polypeptide SEQ ID NO: 34 (E06K, K53A, S55A) (human) (UniProt Q14116); assay: cell-based or functional assay
# [29] = target: IL-18 polypeptide C147 (human) (UniProt Q14116); assay: cell-based or functional assay
# [30] = target: IL-18 polypeptide SEQ ID NO: 52 (E06K, T63A) (human) (UniProt Q14116); assay: cell-based or functional assay
# [31] = target: IL-18 polypeptide SEQ ID NO: 59 (E6K, C38A, K53A) (human) (UniProt Q14116); assay: cell-based or functional assay
# [32] = target: IL-18 polypeptide C149 (human) (UniProt Q14116); assay: cell-based or functional assay
# [33] = target: IL-18 polypeptide SEQ ID NO: 9 (E6K, C38A, K53A, C68A, D98C) (human) (UniProt Q14116); assay: cell-based or functional assay
# [34] = target: IL-18 polypeptide SEQ ID NO: 43 (E06K, K53A, S55A, Y01G) (human) (UniProt Q14116); assay: cell-based or functional assay
# [35] = target: IL-18 polypeptide SEQ ID NO: 41 (K53A, S55A) (human) (UniProt Q14116); assay: cell-based or functional assay
# [36] = target: IL-18 polypeptide SEQ ID NO: 55 (K53A, T63A, C38S, C68S, C76S, C127S, K70C) (human) (UniProt Q14116); assay: cell-based or functional assay
# [37] = target: IL-18 polypeptide SEQ ID NO: 37 (S55A) (human) (UniProt Q14116); assay: cell-based or functional assay
# [38] = target: IL-18 polypeptide SEQ ID NO: 38 (E06K) (human) (UniProt Q14116); assay: cell-based or functional assay
# [39] = target: IL-18 polypeptide SEQ ID NO: 36 (K53A) (human) (UniProt Q14116); assay: cell-based or functional assay
# [40] = target: IL-18 polypeptide C166 (human) (UniProt Q14116); assay: cell-based or functional assay
# [41] = target: IL-18 polypeptide C163 (human) (UniProt Q14116); assay: cell-based or functional assay
# [42] = target: IL-18 polypeptide SEQ ID NO: 5 (E6K, V11I, C38A, K53A, T63A, C68A, C76A, C127A, M86C) (human) (UniProt Q14116); assay: cell-based or functional assay
# [43] = target: IL-18 polypeptide SEQ ID NO: 48 (C38S, C68S, C76S, C127S, K70C) (human) (UniProt Q14116); assay: cell-based or functional assay
# [44] = target: IL-18 polypeptide C160 (human) (UniProt Q14116); assay: cell-based or functional assay
# [45] = target: IL-18 polypeptide SEQ ID NO: 60 (E6K, C38Q, K53A) (human) (UniProt Q14116); assay: cell-based or functional assay
# [46] = target: IL-18 polypeptide C150 (human) (UniProt Q14116); assay: cell-based or functional assay
# [47] = target: IL-18 polypeptide SEQ ID NO: 4 (E6K, C38A, K53A, C68A, M86C) (human) (UniProt Q14116); assay: cell-based or functional assay
# [48] = target: IL-18 polypeptide SEQ ID NO: 6 (E6K, V11I, C38A, K53A, T63A, C68A, C76A, C127A, D98C) (human) (UniProt Q14116); assay: cell-based or functional assay
# [49] = target: IL-18 polypeptide C143 (human) (UniProt Q14116); assay: cell-based or functional assay
# [50] = target: IL-18 polypeptide C156 (human) (UniProt Q14116); assay: cell-based or functional assay
# [51] = target: IL-18 polypeptide C162 (human) (UniProt Q14116); assay: cell-based or functional assay
# [52] = target: IL-18 polypeptide C164 (human) (UniProt Q14116); assay: cell-based or functional assay
# [53] = target: IL-18 polypeptide SEQ ID NO: 50 (E06K, K53A, T63A) (human) (UniProt Q14116); assay: cell-based or functional assay
# [54] = target: IL-18 polypeptide SEQ ID NO: 42 (E06K, K53A, S55A, T63A) (human) (UniProt Q14116); assay: cell-based or functional assay
# [55] = target: native IL-18 wild-type (SEQ ID NO: 1) (human) (UniProt Q14116)
# [56] = target: IL-18 polypeptide SEQ ID NO: 31 (C38A, C76A, C127A) (human) (UniProt Q14116)
# [57] = target: Composition A (LZM-009 conjugated to IL-18 polypeptide SEQ ID NO: 30) (human) (UniProt Q14116)
# [58] = target: Composition D (LZM-009 conjugated to IL-18 polypeptide SEQ ID NO: 31) (human) (UniProt Q14116)
# [59] = target: Composition C (Trastuzumab/Herceptin conjugated to IL-18 polypeptide SEQ ID NO: 30) (human)
substance,measurement,setting,value
Fc fused human IL-18 binding protein isoform a (from UniProt O95998 31-194) (Fc fusion),IC50 of IL-18BP on IFNγ secretion by NK92 cells,[1],0.444 nM
same,IC50 of IL-18BP on IFNγ secretion by NK92 cells,[2],7.85 nM
same,IC50 of IL-18BP on IFNγ secretion by NK92 cells,[3],5.05 nM
same,IC50 of IL-18BP on IFNγ secretion by NK92 cells,[4],146 nM
same,IC50 of IL-18BP on IFNγ secretion by NK92 cells,[5],1.81 nM
same,IC50 of IL-18BP on IFNγ secretion by NK92 cells,[6],6.08 nM
same,IC50 of IL-18BP on IFNγ secretion by NK92 cells,[7],> 703 nM
same,IC50 of IL-18BP on IFNγ secretion by NK92 cells,[8],733 nM
same,IC50 of IL-18BP on IFNγ secretion by NK92 cells,[9],0.809 nM
same,IC50 of IL-18BP on IFNγ secretion by NK92 cells,[10],15 nM
same,IC50 of IL-18BP on IFNγ secretion by NK92 cells,[11],7.52 nM
same,IC50 of IL-18BP on IFNγ secretion by NK92 cells,[12],3.98 nM
same,IC50 of IL-18BP on IFNγ secretion by NK92 cells,[13],18.2 nM
same,IC50 of IL-18BP on IFNγ secretion by NK92 cells,[14],284 nM
same,IC50 of IL-18BP on IFNγ secretion by NK92 cells,[15],2.22 nM
same,IC50 of IL-18BP on IFNγ secretion by NK92 cells,[16],0.189 nM
same,IC50 of IL-18BP on IFNγ secretion by NK92 cells,[17],> 55 nM
same,IC50 of IL-18BP on IFNγ secretion by NK92 cells,[18],0.239 nM
same,IC50 of IL-18BP on IFNγ secretion by NK92 cells,[19],0.176 nM
same,IC50 of IL-18BP on IFNγ secretion by NK92 cells,[20],1.07 nM
same,IC50 of IL-18BP on IFNγ secretion by NK92 cells,[21],0.885 nM
same,IC50 of IL-18BP on IFNγ secretion by NK92 cells,[22],1.47 nM
same,IC50 of IL-18BP on IFNγ secretion by NK92 cells,[23],10.2 nM
same,IC50 of IL-18BP on IFNγ secretion by NK92 cells,[24],3.62 nM
same,IC50 of IL-18BP on IFNγ secretion by NK92 cells,[25],23.5 nM
same,IC50 of IL-18BP on IFNγ secretion by NK92 cells,[26],3.23 nM
same,IC50 of IL-18BP on IFNγ secretion by NK92 cells,[27],3.71 nM
same,IC50 of IL-18BP on IFNγ secretion by NK92 cells,[28],229 nM
same,IC50 of IL-18BP on IFNγ secretion by NK92 cells,[29],47.6 nM
same,IC50 of IL-18BP on IFNγ secretion by NK92 cells,[30],47.1 nM
same,IC50 of IL-18BP on IFNγ secretion by NK92 cells,[31],654 nM
same,IC50 of IL-18BP on IFNγ secretion by NK92 cells,[32],1.17 nM
same,IC50 of IL-18BP on IFNγ secretion by NK92 cells,[33],961 nM
same,IC50 of IL-18BP on IFNγ secretion by NK92 cells,[34],27.8 nM
same,IC50 of IL-18BP on IFNγ secretion by NK92 cells,[35],37.3 nM
same,IC50 of IL-18BP on IFNγ secretion by NK92 cells,[36],> 1000 nM
same,IC50 of IL-18BP on IFNγ secretion by NK92 cells,[37],4.46 nM
same,IC50 of IL-18BP on IFNγ secretion by NK92 cells,[38],7.79 nM
same,IC50 of IL-18BP on IFNγ secretion by NK92 cells,[39],27.3 nM
same,IC50 of IL-18BP on IFNγ secretion by NK92 cells,[40],0.44 nM
same,IC50 of IL-18BP on IFNγ secretion by NK92 cells,[41],0.823 nM
same,IC50 of IL-18BP on IFNγ secretion by NK92 cells,[42],62.4 nM
same,IC50 of IL-18BP on IFNγ secretion by NK92 cells,[43],0.114 nM
same,IC50 of IL-18BP on IFNγ secretion by NK92 cells,[44],3.18 nM
same,IC50 of IL-18BP on IFNγ secretion by NK92 cells,[45],780 nM
same,IC50 of IL-18BP on IFNγ secretion by NK92 cells,[46],21.3 nM
same,IC50 of IL-18BP on IFNγ secretion by NK92 cells,[47],396 nM
same,IC50 of IL-18BP on IFNγ secretion by NK92 cells,[48],5.85 nM
same,IC50 of IL-18BP on IFNγ secretion by NK92 cells,[49],1.62 nM
same,IC50 of IL-18BP on IFNγ secretion by NK92 cells,[50],0.681 nM
same,IC50 of IL-18BP on IFNγ secretion by NK92 cells,[51],7.29 nM
same,IC50 of IL-18BP on IFNγ secretion by NK92 cells,[52],0.456 nM
same,IC50 of IL-18BP on IFNγ secretion by NK92 cells,[53],> 1000 nM
same,IC50 of IL-18BP on IFNγ secretion by NK92 cells,[54],1060 nM
same,IC50 (read off the curve),[55],1 nM
same,IC50 (read off the curve),[56],0.3 nM
same,IC50 (read off the curve),[57],8 nM
same,IC50 (read off the curve),[58],0.1 nM
same,IC50 (read off the curve),[59],10 nM
